For test [1], the target named is T1, human recombinant HER3 Extracellular Domain (HER3 ECD) (human, UniProt P21860 20-643).
T1 construct: 68 kDa; also called human-Her3-ECD
As to the kind of experiment: SPR Biacore 4000 kinetic screening, antibody captured, analyte 150 nM, 25 C. Here is the method:
(§1) In all assay the test antibodies were captured. The system was under the control of the software version V1.1. The instrument buffer was HBS-EP (10 mM HEPES (pH 7.4), 150 mM NaCl, 1 mM EDTA, 0.05% (w/v) P20). The system operated at 25° C. 30 μg/ml Rabbit polyclonal antibody (RAM IgG, (Rabbit anti Mouse IgG with Fc gamma specificity) GE Healthcare) in 10 mM sodium acetate buffer (pH 4.5) was immobilized using EDC/NHS chemistry according to the manufacturer's instructions on the spots 1, 2, 4 and 5 in the flow cells 1, 2, 3 and 4. The sensor was saturated using 1M ethanolamine. In each flow cell, referenced signals were calculated using spots 1-2 and spots 5-4, spot 3 served as a blanc control. […] Prior to their application the hybridoma culture supernatants were diluted 1:5 in instrument buffer. The diluted mixtures were injected at a flow rate of 30 μl/min for 2 min. The antibody capture level (CL) in response units was monitored. Immediately thereafter the respective antigen was injected at a flow rate of 30 μl/min for 3 min association time. Thereafter, the antibody-antigen complex dissociation signal was recorded for 5 min. The sensor was regenerated by injecting a 10 mM glycine-HCl solution (pH 1.7) for 2 min at a flow rate of 30 μl/min. The recorded signal shortly before the end of the injection of the antigen was denoted as binding late (BL) in response units. The recorded signal shortly before the end of the recording of the dissociation is denoted as stability late (SL) in response units. The dissociation rate constants were determined calculated The antibody-antigen complex stability in minutes was calculated with the following formula: […]. The Molar Ratio was calculated with the formula: MW (antibody)/MW (antigen) *BL (antigen)/CL (antibody).
On the technique in general: SPR reads the build-up and loss of mass on a sensor chip optically.

Test [2] addresses T2, recombinant Thermus thermophilus SlyD FKBP-Her3 (TtSlyD-FKBP-Her3).
T2 construct: expressed in E. coli, the N-terminal methionine can be present or not; also called thermo SlyD-Her3; T.T.SlyD-Her3
T2 chain: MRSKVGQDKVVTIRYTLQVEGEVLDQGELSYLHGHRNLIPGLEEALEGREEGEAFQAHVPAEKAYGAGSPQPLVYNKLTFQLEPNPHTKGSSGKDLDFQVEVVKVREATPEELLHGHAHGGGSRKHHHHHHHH
Described as above. Here is the method:
as §1

Test [3] has as its target HER2, full length, on cells (transfected HEK293, MCF7) (human, UniProt P04626 23-1255). In words: IHC on HEK293 cells transiently transfected with full length HER2; NC = untransfected cells. As for the experimental part:
All selected clones were tested for reactivity and specificity in IHC. […] After an additional fixation in formalin overnight the Agarose blocks were embedded in paraffin. Untransfected HEK293 cells were used as negative controls and treated accordingly to the transfected cells. After paraffin embedding 3 μm thin sections were prepared using a microtome. The sections were mounted on glass microscopy slides and dried for 2 h. All further steps of the immunohistochemical staining procedure were carried out using a Ventana Benchmark XT. The slides were dewaxed and antigen retrieval was performed by applying heat for 1 hour. For antigen retrieval the Ventana buffer CC1 was used. The antibodies were used at a concentration of 1 μg/ml. For the detection of bound antibody the Ventana UltraView detection kit was used.

The target in test [4] is T1, human recombinant HER3 Extracellular …. As to the kind of experiment: SPR Biacore T200, antibody captured, 25 C. Here is the method:
(§2) A Biacore T200 instrument (GE Healthcare) was mounted with a CM5 series sensor. The sensor was normalized in HBS-ET buffer (10 mM HEPES pH 7.4, 150 mM NaCl, 3 mM EDTA, 0.05% w/v Tween 20) according to the manufacturer's instructions. The sample buffer was the system buffer supplemented with 1 mg/ml CMD (Carboxymethyldextran, Sigma #86524). The system operated at 25° C. 6500 RU RAM-Fcγ (relative units of Fcγ-fragment RamlgG, GE Healthcare) were immobilized according to the manufacturer's instructions using amine coupling EDC/NHS chemistry on all four flow cells. The sensor was deactivated using 1M ethanolamine. […] Concentration dependent kinetics were measured. […] All analytes were injected for 5 min association time and 10 min dissociation time at 100 μl/min flow rate. The sensor capture system was regenerated by a 3 min injection at 10 μl/min of 10 mM glycine pH 1.7. Where possible kinetic data was evaluated using the Biacore T200 evaluation software.

The target in test [5] is T3, HER3 ECD-HRG complex (Heregulin-activated Her-3 ECD) (human, UniProt P21860 20-643).
T3 construct: receptor-ligand complex made by preincubating HER3 ECD with a five-fold molar excess of Heregulin; also called Heregulin/Her-3 ECD; Heregulin-complexed Her-3 ECD
In words: SPR Biacore T200, antibody captured, 25 C. Here is the method:
as §2

In the next test the target is T4, TtSlyDcas.
T4 construct: negative control scaffold without the HER3 β-hairpin
T4 chain: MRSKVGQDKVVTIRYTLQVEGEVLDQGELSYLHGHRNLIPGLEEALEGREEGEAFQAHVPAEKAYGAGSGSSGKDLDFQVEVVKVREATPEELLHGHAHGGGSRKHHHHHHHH
As to the kind of experiment: SPR Biacore T200, antibody captured, 25 C. Here is the method: as §2

For another test, the target named is T5, SBP-tagged HER3-ECD (human, UniProt P21860 20-643).
T5 construct: not shown: SBP tag
As to the kind of experiment: time-resolved fluorescence, 10 nM Eu-labelled Heregulin-beta on plate-bound SBP-tagged HER3-ECD, antibody titrated. As for the experimental part:
On the next day the wells were washed three times with washing buffer (PBS+0.05% Tween-20) and blocked with PBS containing 1% BSA for one hour. After another three washes with washing buffer, 40 μl antibody solution (in Delfia Binding Buffer) was added to each well as a 2× stock of the desired final concentrations (10⁻³ to 10³ nM, alternatively 10⁻⁴ to 10² nM). Immediately […] of 20 nM Europium-labeled Heregulin-beta (PeproTech, Cat. #100-03) was added to achieve a final concentration of 10 nM. The plates were incubated on a shaker at room temperature for two hours. Following three washes with Delfia Wash Buffer, Delfia Enhancement Solution was added and incubated on a shaker for 15 minutes (light protected). Finally, the plates were measured in a Tecan Infinite F200 reader using a time-resolved fluorescence measurement protocol.

B1: anti-HER3 antibody M-17-02 (antibody, V domains shown)
VH: EVQLQQSGTVLARPGASVKMSCKASGYSFTSYWIHWVKQRPGQGLEWIGAIYPGNSDTTYNQKFKGKAKLTAVTSASTAYMELSSLTNEDSAVYYCARTGVWTSYYFDYWGQGTTLTVSS
VL: DIQMTQSPASLSASVGETVTITCRASENIYSNLAWYQQKQGKSPQLLVYAATNLADGVPSRFSGSGSGTQFSLRINSLQPEDFGSYYCQHFYGTPFTFGTGTKLEIK
notes: mouse hybridoma clone
As usually defined, the koff is a measure of how fast the partners let go of each other. With B1, in test [1], the “BL (binding late)” value is 10 RU, the “MR (Molar Ratio)” value is 0.1 and the “SL (stability late)” value came to 10 RU. In addition, in test [2], the “BL (binding late)” value stood at 52 RU, the “MR (Molar Ratio)” value was found to be 1.7, the “SL (stability late)” value is 50 RU and the koff turned out to be 0.0002 s⁻¹. Moreover, the t/2 diss in test [2] came out at 59 min. Moreover, in test [3], the binding result is given as “no binding”.

B2: anti-HER3 antibody M-43-01 (antibody, V domains shown)
VH: EVQLQQSGTVLARPGASVKMSCKASDYTFSNYWVHWVKQRPGQGLEWIGAIYPGNGDSTYYQKFKGKATLTAVTSTSTAYMDLSSLTNGDSAVYFCTRSGVGYNYYFDYWGQGTTLTVSS
VL: DIQMTQSPASLSASVGETVTITCRASENIYSNLAWYQQKQGKSPQLLVYIATNLADGVPSRFSGSGSGTQFSLKINSLQPEDLGSYYCQHFYGTPFTFGTGTKLEIE
notes: mouse hybridoma clone
As a reminder, the Kd is the equilibrium constant for the complex coming apart. Broadly, the kon is a measure of how fast the partners come together. As to B2, in test [4], the Kd worked out at 5.2 nM, the “MR (Molar Ratio)” value turned out to be 0.1, the koff came to 0.00055 s⁻¹ and the kon stood at 110000 M⁻¹ s⁻¹. The “MR (Molar Ratio)” value in test [5] amounted to 0.3. In addition, in the test with TtSlyDcas, the “MR (Molar Ratio)” value was 0 and the binding result is “no binding (tested: 90 nM)”. Besides, in test [1], the “BL (binding late)” value was determined as 9 RU, the “MR (Molar Ratio)” value stood at 0.1, the “SL (stability late)” value is 8 RU and the koff amounted to 0.00066 s⁻¹. Besides, in test [1], the t/2 diss stood at 18 min. Moreover, in test [2], the “BL (binding late)” value was found to be 53 RU, the “MR (Molar Ratio)” value worked out at 1.7, the “SL (stability late)” value was determined as 51 RU and the koff is 0.00016 s⁻¹. In addition, the t/2 diss in test [2] is 73 min. In addition, the binding result in test [3] is “no binding”. Also, the “signal of HRG binding to HER3-ECD at the plateau” value (from here on “signal of HRG binding to HER3-ECD”) with SBP-tagged HER3-ECD is 200%.

B3: anti-HER3 antibody M-46-01 (antibody, V domains shown)
VH: QIQLQQSGPQLVRPGASVKISCKASGYSFTSYWMHWVKQRPGRGLEWIGMIDPSDGVTRLNQKFKDKATLTVDNSSSTAYMQLSSPTSEDSAVHYCARVDVLYWYFDVWGAGTTVTVSS
VL: DIVLTQSPASLAVSLGQRATISCRASKSISISGYSYMHWYQQKAGQPPKLLIYLTSNLESGVPARFSGSGSGTDFTLNIHPVEEEDAATYYCHHSRELPFTFGSGTKLEIK
notes: mouse hybridoma clone
B3: in test [4], the Kd amounted to 3.8 nM, the “MR (Molar Ratio)” value was determined as 0.2, the koff was 0.0004 s⁻¹ and the kon is 100000 M⁻¹ s⁻¹. The “MR (Molar Ratio)” value in test [5] is 0.9. Moreover, in the test with TtSlyDcas, the “MR (Molar Ratio)” value was 0 and the binding result is given as “no binding (tested: 90 nM)”. Also, in test [1], the “BL (binding late)” value worked out at 21 RU, the “MR (Molar Ratio)” value turned out to be 0.2, the “SL (stability late)” value is 17 RU and the koff came to 0.00041 s⁻¹. Further, in test [1], the t/2 diss amounted to 28 min. Also, in test [2], the “BL (binding late)” value came out at 80 RU, the “MR (Molar Ratio)” value stood at 1.8, the “SL (stability late)” value stood at 71 RU and the koff is 0.00028 s⁻¹. In addition, in test [2], the t/2 diss came out at 41 min. Besides, the binding result in test [3] was “no binding”. Also, the “signal of HRG binding to HER3-ECD” value with SBP-tagged HER3-ECD turned out to be 330%.

B4: anti-HER3 antibody M-08-11 (antibody, V domains shown)
VH: QAYLQQSGAELMRPGASVRMSCQASGYTFTSYTIHWLKQTPRQGLEWIGAIYPRNGDFSYNQKFKDKASLTVDTSSSTAYMHLSSLTSEDSAVYFCARTINYGDWFAYWGQGTLVTVSA
VL: DIQMIQSPASLFVSEGETVIITCRASENIYSNLAWYHQKKGKSPQVLVYAAIKLADGVPLRFSGSGSGTQFSLKINSLQSEDFGSYYCQHFWGPPYTFGSGTNLEIK
notes: mouse monoclonal antibody from hybridoma, tested as hybridoma supernatant or as antibody; also called M-011
For the molecule B4, in test [4], the Kd came to 3.5 nM, the “MR (Molar Ratio)” value was 0.1, the koff turned out to be 0.00037 s⁻¹ and the kon was found to be 110000 M⁻¹ s⁻¹. In addition, the “MR (Molar Ratio)” value in test [5] turned out to be 0.7. For the same molecule, in the test with TtSlyDcas, the “MR (Molar Ratio)” value was 0 and the binding result is “no binding (tested: 90 nM)”. Besides, in test [1], the “BL (binding late)” value is 61 RU, the “MR (Molar Ratio)” value stood at 0.4, the “SL (stability late)” value came out at 62 RU and the koff was 4.11e-05 s⁻¹. Besides, the t/2 diss in test [1] amounted to 281 min. For the same molecule, in test [2], the “BL (binding late)” value was 46 RU, the “MR (Molar Ratio)” value stood at 1.3, the “SL (stability late)” value came out at 45 RU and the koff stood at 0.000102 s⁻¹. Further, the t/2 diss in test [2] worked out at 114 min. Besides, the binding result in test [3] is listed as “no binding”. In addition, in the test with SBP-tagged HER3-ECD, the “signal of HRG binding to HER3-ECD” value is 200%.
